According to PMC9352680, “A comprehensive thermodynamic model for RNA binding by the Saccharomyces cerevisiae Pumilio protein PUF4”:

T1: PUF4 RNA-binding domain (Saccharomyces cerevisiae, UniProt P25339 537-888)
T1 sequence: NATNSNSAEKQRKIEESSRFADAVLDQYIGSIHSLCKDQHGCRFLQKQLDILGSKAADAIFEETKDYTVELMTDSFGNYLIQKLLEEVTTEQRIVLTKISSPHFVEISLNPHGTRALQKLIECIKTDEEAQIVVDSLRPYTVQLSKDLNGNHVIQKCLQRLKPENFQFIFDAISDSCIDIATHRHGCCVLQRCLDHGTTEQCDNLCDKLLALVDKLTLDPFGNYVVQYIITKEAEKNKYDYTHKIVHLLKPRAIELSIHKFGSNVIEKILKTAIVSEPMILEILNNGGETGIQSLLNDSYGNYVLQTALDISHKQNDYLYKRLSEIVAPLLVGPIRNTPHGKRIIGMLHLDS


Target: T1, PUF4 RNA-binding domain
Assay: Mg; RNA-MaP; 20 mM Na-HEPES pH 7.4, 30 mM KOAc, 0.75 mM MgCl2, 0.1% Tween-20, 5% glycerol, 0.1 mg/mL BSA, 2 mM DTT; 25 C; 0.0125-409.6 nM protein
Settings: tags: N-His6-TEV cleaved; C-SNAP kept, Cy3B-labelled; label: tethered on chip by stalled RNA polymerase

Row | Binder | Kd
1 | UCUCUUUAUAUUAUAAUCUCUU (ssRNA) [Ib_S1_P5E.1_K5.1_C5.1_H5.1_[G2A]_A5.1_F5.1_[T9A]_T5.1] | 124 nM
2 | UCUCUUUGCAUUAUCAUCUCUU (ssRNA) [Ib_S1_P5E.1_K5.1_C5.1_H5.1_[T3C]_A5.1_F5.1_[T9C]_T5.1] | > 2300 nM
3 | Id_ii_S2_P3E.3_K3.2_C3.2_[T-1G]_H3.2_A3.1_F3.1_T3.2_[T9G]_[A10C] (ssRNA) RNA: UUUGAUUAAUAUGAUAUCGUUCUUUCUCGUAUAUAUAGCUUCUUUCUCGAUAUCAUAUUAAUCUUU | 108 nM
4 | Id_ii_S2_P3E.3_K3.2_C3.2_[T-1A]_H3.2_A3.1_F3.1_T3.2_[T9A]_[A10G] (ssRNA) RNA: UUUGAUUAAUAUGAUAUCGUUCUUUCUCAUAUAUAUAAGUUCUUUCUCGAUAUCAUAUUAAUCUUU | 1090 nM
5 | Id_ii_S2_P3E.3_K3.2_C3.2_[T-1C]_H3.2_A3.1_F3.1_T3.2_[T9A]_[A10G] (ssRNA) RNA: UUUGAUUAAUAUGAUAUCGUUCUUUCUCCUAUAUAUAAGUUCUUUCUCGAUAUCAUAUUAAUCUUU | 739 nM
6 | Id_ii_S2_P3E.3_K3.2_C3.2_H3.2_A3.1_F3.1_T3.2_[A10C] (ssRNA) RNA: UUUGAUUAAUAUGAUAUCGUUCUUUCUCUUAUAUAUAUCUUCUUUCUCGAUAUCAUAUUAAUCUUU | 83.2 nM
7 | Id_ii_S2_P3E.3_K3.2_C3.2_[T-1G]_H3.2_A3.1_F3.1_T3.2_[T9A]_[A10G] (ssRNA) RNA: UUUGAUUAAUAUGAUAUCGUUCUUUCUCGUAUAUAUAAGUUCUUUCUCGAUAUCAUAUUAAUCUUU | 573 nM
8 | Id_ii_S2_P3E.3_K3.2_C3.2_[T-1A]_H3.2_A3.1_F3.1_T3.2_[T9G]_[A10T] (ssRNA) RNA: UUUGAUUAAUAUGAUAUCGUUCUUUCUCAUAUAUAUAGUUUCUUUCUCGAUAUCAUAUUAAUCUUU | 447 nM
9 | Id_ii_S2_P3E.3_K3.2_C3.2_[T-1G]_H3.2_A3.1_F3.1_T3.2_[T9C]_[A10C] (ssRNA) RNA: UUUGAUUAAUAUGAUAUCGUUCUUUCUCGUAUAUAUACCUUCUUUCUCGAUAUCAUAUUAAUCUUU | 863 nM
10 | Id_ii_S2_P3E.4_K3.3_C3.2_[C-2G]_[T-1C]_H3.3_A3.1_F3.1_T3.2_[T9A] (ssRNA) RNA: UUUGAUUAAUAUGAUAUCGUUCUUUCUGCACACUAUAAAUUCUUUCUCGAUAUCAUAUUAAUCUUU | 38.5 nM
11 | Id_ii_S2_P3E.4_K3.3_C3.2_[C-2G]_[T-1C]_H3.3_A3.1_F3.1_T3.2_[T9C]_[A10G] (ssRNA) RNA: UUUGAUUAAUAUGAUAUCGUUCUUUCUGCACACUAUACGUUCUUUCUCGAUAUCAUAUUAAUCUUU | 817 nM
12 | Id_ii_S2_P3E.4_K3.3_C3.2_[C-2T]_[T-1C]_H3.3_A3.1_F3.1_T3.2_[T9C]_[A10C] (ssRNA) RNA: UUUGAUUAAUAUGAUAUCGUUCUUUCUUCACACUAUACCUUCUUUCUCGAUAUCAUAUUAAUCUUU | 1970 nM
13 | Id_ii_S2_P3E.4_K3.3_C3.2_[C-2G]_H3.3_A3.1_F3.1_T3.2_[T9A]_[A10C] (ssRNA) RNA: UUUGAUUAAUAUGAUAUCGUUCUUUCUGUACACUAUAACUUCUUUCUCGAUAUCAUAUUAAUCUUU | 0.742 nM
14 | Id_ii_S2_P3E.3_K3.2_C3.2_[T-1A]_H3.2_A3.1_F3.1_T3.2_[T9C]_[A10C] (ssRNA) RNA: UUUGAUUAAUAUGAUAUCGUUCUUUCUCAUAUAUAUACCUUCUUUCUCGAUAUCAUAUUAAUCUUU | 177 nM
15 | Id_ii_S2_P3E.4_K3.3_C3.2_[C-2G]_H3.3_A3.1_F3.1_T3.2_[T9C]_[A10T] (ssRNA) RNA: UUUGAUUAAUAUGAUAUCGUUCUUUCUGUACACUAUACUUUCUUUCUCGAUAUCAUAUUAAUCUUU | 1.98 nM
16 | Id_ii_S2_P3E.3_K3.2_C3.2_H3.2_A3.1_F3.1_T3.2_[A10G] (ssRNA) RNA: UUUGAUUAAUAUGAUAUCGUUCUUUCUCUUAUAUAUAUGUUCUUUCUCGAUAUCAUAUUAAUCUUU | 83.8 nM
17 | Id_ii_S2_P3E.4_K3.3_C3.2_[C-2G]_H3.3_A3.1_F3.1_T3.2_[T9A]_[A10T] (ssRNA) RNA: UUUGAUUAAUAUGAUAUCGUUCUUUCUGUACACUAUAAUUUCUUUCUCGAUAUCAUAUUAAUCUUU | 0.478 nM
18 | Id_ii_S2_P3E.3_K3.2_C3.2_H3.2_A3.1_F3.1_T3.2_[T9A]_[A10C] (ssRNA) RNA: UUUGAUUAAUAUGAUAUCGUUCUUUCUCUUAUAUAUAACUUCUUUCUCGAUAUCAUAUUAAUCUUU | 112 nM
19 | Id_ii_S2_P3E.4_K3.3_C3.2_[C-2G]_[T-1C]_H3.3_A3.1_F3.1_T3.2_[T9A]_[A10C] (ssRNA) RNA: UUUGAUUAAUAUGAUAUCGUUCUUUCUGCACACUAUAACUUCUUUCUCGAUAUCAUAUUAAUCUUU | 31.9 nM
20 | Id_ii_S2_P3E.4_K3.3_C3.2_[C-2G]_H3.3_A3.1_F3.1_T3.2_[A10C] (ssRNA) RNA: UUUGAUUAAUAUGAUAUCGUUCUUUCUGUACACUAUAUCUUCUUUCUCGAUAUCAUAUUAAUCUUU | 0.486 nM
21 | Id_ii_S2_P3E.3_K3.2_C3.2_[T-1C]_H3.2_A3.1_F3.1_T3.2_[T9C] (ssRNA) RNA: UUUGAUUAAUAUGAUAUCGUUCUUUCUCCUAUAUAUACAUUCUUUCUCGAUAUCAUAUUAAUCUUU | 84.9 nM
22 | Id_ii_S2_P3E.3_K3.2_C3.2_[T-1C]_H3.2_A3.1_F3.1_T3.2_[T9A]_[A10T] (ssRNA) RNA: UUUGAUUAAUAUGAUAUCGUUCUUUCUCCUAUAUAUAAUUUCUUUCUCGAUAUCAUAUUAAUCUUU | 93.1 nM
23 | Id_ii_S2_P3E.3_K3.2_C3.2_H3.2_A3.1_F3.1_T3.2_[T9C]_[A10G] (ssRNA) RNA: UUUGAUUAAUAUGAUAUCGUUCUUUCUCUUAUAUAUACGUUCUUUCUCGAUAUCAUAUUAAUCUUU | 292 nM

Row | Binder | Kd
24 | Id_ii_S2_P3E.3_K3.2_C3.2_[T-1G]_H3.2_A3.1_F3.1_T3.2 (ssRNA) RNA: UUUGAUUAAUAUGAUAUCGUUCUUUCUCGUAUAUAUAUAUUCUUUCUCGAUAUCAUAUUAAUCUUU | 160 nM
25 | Id_ii_S2_P3E.3_K3.2_C3.2_H3.2_A3.1_F3.1_T3.2_[T9A]_[A10T] (ssRNA) RNA: UUUGAUUAAUAUGAUAUCGUUCUUUCUCUUAUAUAUAAUUUCUUUCUCGAUAUCAUAUUAAUCUUU | 121 nM
26 | Id_ii_S2_P3E.4_K3.3_C3.2_[C-2G]_H3.3_A3.1_F3.1_T3.2_[T9C]_[A10C] (ssRNA) RNA: UUUGAUUAAUAUGAUAUCGUUCUUUCUGUACACUAUACCUUCUUUCUCGAUAUCAUAUUAAUCUUU | 0.875 nM
27 | Id_ii_S2_P3E.3_K3.2_C3.2_[T-1C]_H3.2_A3.1_F3.1_T3.2_[T9C]_[A10C] (ssRNA) RNA: UUUGAUUAAUAUGAUAUCGUUCUUUCUCCUAUAUAUACCUUCUUUCUCGAUAUCAUAUUAAUCUUU | 245 nM
28 | Id_ii_S2_P3E.3_K3.2_C3.2_[T-1C]_H3.2_A3.1_F3.1_T3.2_[T9A]_[A10C] (ssRNA) RNA: UUUGAUUAAUAUGAUAUCGUUCUUUCUCCUAUAUAUAACUUCUUUCUCGAUAUCAUAUUAAUCUUU | 122 nM
29 | Id_ii_S2_P3E.4_K3.3_C3.2_[C-2G]_[T-1C]_H3.3_A3.1_F3.1_T3.2_[T9C] (ssRNA) RNA: UUUGAUUAAUAUGAUAUCGUUCUUUCUGCACACUAUACAUUCUUUCUCGAUAUCAUAUUAAUCUUU | 78 nM
30 | Id_ii_S2_P3E.3_K3.2_C3.2_[T-1A]_H3.2_A3.1_F3.1_T3.2_[T9C] (ssRNA) RNA: UUUGAUUAAUAUGAUAUCGUUCUUUCUCAUAUAUAUACAUUCUUUCUCGAUAUCAUAUUAAUCUUU | 198 nM
31 | Id_ii_S2_P3E.3_K3.2_C3.2_[T-1C]_H3.2_A3.1_F3.1_T3.2 (ssRNA) RNA: UUUGAUUAAUAUGAUAUCGUUCUUUCUCCUAUAUAUAUAUUCUUUCUCGAUAUCAUAUUAAUCUUU | 42.2 nM
32 | Id_ii_S2_P3E.4_K3.3_C3.2_[C-2G]_H3.3_A3.1_F3.1_T3.2 (ssRNA) RNA: UUUGAUUAAUAUGAUAUCGUUCUUUCUGUACACUAUAUAUUCUUUCUCGAUAUCAUAUUAAUCUUU | 0.551 nM
33 | Id_ii_S2_P3E.3_K3.2_C3.2_[T-1C]_H3.2_A3.1_F3.1_T3.2_[T9G]_[A10T] (ssRNA) RNA: UUUGAUUAAUAUGAUAUCGUUCUUUCUCCUAUAUAUAGUUUCUUUCUCGAUAUCAUAUUAAUCUUU | 718 nM
34 | Id_ii_S2_P3E.3_K3.2_C3.2_[T-1G]_H3.2_A3.1_F3.1_T3.2_[T9A] (ssRNA) RNA: UUUGAUUAAUAUGAUAUCGUUCUUUCUCGUAUAUAUAAAUUCUUUCUCGAUAUCAUAUUAAUCUUU | 190 nM
35 | Id_ii_S2_P3E.3_K3.2_C3.2_H3.2_A3.1_F3.1_T3.2_[T9A] (ssRNA) RNA: UUUGAUUAAUAUGAUAUCGUUCUUUCUCUUAUAUAUAAAUUCUUUCUCGAUAUCAUAUUAAUCUUU | 401 nM
36 | Id_ii_S2_P3E.3_K3.2_C3.2_[T-1A]_H3.2_A3.1_F3.1_T3.2_[T9A]_[A10C] (ssRNA) RNA: UUUGAUUAAUAUGAUAUCGUUCUUUCUCAUAUAUAUAACUUCUUUCUCGAUAUCAUAUUAAUCUUU | 218 nM
37 | Id_ii_S2_P3E.3_K3.2_C3.2_H3.2_A3.1_F3.1_T3.2_[T9C] (ssRNA) RNA: UUUGAUUAAUAUGAUAUCGUUCUUUCUCUUAUAUAUACAUUCUUUCUCGAUAUCAUAUUAAUCUUU | 108 nM
38 | Id_ii_S2_P3E.3_K3.2_C3.2_H3.2_A3.1_F3.1_T3.2 (ssRNA) RNA: UUUGAUUAAUAUGAUAUCGUUCUUUCUCUUAUAUAUAUAUUCUUUCUCGAUAUCAUAUUAAUCUUU | 54.4 nM
39 | Id_ii_S2_P3E.3_K3.2_C3.2_[T-1C]_H3.2_A3.1_F3.1_T3.2_[T9A] (ssRNA) RNA: UUUGAUUAAUAUGAUAUCGUUCUUUCUCCUAUAUAUAAAUUCUUUCUCGAUAUCAUAUUAAUCUUU | 251 nM
40 | Id_ii_S2_P3E.3_K3.2_C3.2_[T-1A]_H3.2_A3.1_F3.1_T3.2_[A10C] (ssRNA) RNA: UUUGAUUAAUAUGAUAUCGUUCUUUCUCAUAUAUAUAUCUUCUUUCUCGAUAUCAUAUUAAUCUUU | 227 nM
41 | Id_ii_S2_P3E.3_K3.2_C3.2_[T-1C]_H3.2_A3.1_F3.1_T3.2_[T9C]_[A10T] (ssRNA) RNA: UUUGAUUAAUAUGAUAUCGUUCUUUCUCCUAUAUAUACUUUCUUUCUCGAUAUCAUAUUAAUCUUU | 120 nM
42 | Id_ii_S2_P3E.3_K3.2_C3.2_H3.2_A3.1_F3.1_T3.2_[T9C]_[A10C] (ssRNA) RNA: UUUGAUUAAUAUGAUAUCGUUCUUUCUCUUAUAUAUACCUUCUUUCUCGAUAUCAUAUUAAUCUUU | 115 nM
43 | Id_ii_S2_P3E.3_K3.2_C3.2_H3.2_A3.1_F3.1_T3.2_[A10T] (ssRNA) RNA: UUUGAUUAAUAUGAUAUCGUUCUUUCUCUUAUAUAUAUUUUCUUUCUCGAUAUCAUAUUAAUCUUU | 72.5 nM
44 | UCUCUUUAUAUUAUCAUCUCUU (ssRNA) [Ib_S1_P5E.1_K5.1_C5.1_H5.1_[G2A]_A5.1_F5.1_[T9C]_T5.1] | 641 nM
45 | UCUCUUUGCAUUAUAAUCUCUU (ssRNA) [Ib_S1_P5E.1_K5.1_C5.1_H5.1_[T3C]_A5.1_F5.1_[T9A]_T5.1] | 1400 nM
